From patent US20110243947A1 (Eli Lilly, published 2011)

Experiments:
chimera 3 (m,m,m) = target: T1, chimera 3 (m,m,m) (mouse; human, UniProt P09581 21-292); assay: binding ELISA, coated chimera
T1 construct: range 21-292; not shown: Fc portion of an IgG molecule
Method: (§1) Briefly, coat plates with 100 μL of 200 ng/mL human, mouse or chimera 1-7 proteins overnight.

mouse CSF-1R = target: T2, mouse CSF-1R (mouse, UniProt P09581 20-511, limits assumed); assay: binding ELISA, coated receptor protein
T2 construct: also called murine form of the receptor
T2 sequence (looked up): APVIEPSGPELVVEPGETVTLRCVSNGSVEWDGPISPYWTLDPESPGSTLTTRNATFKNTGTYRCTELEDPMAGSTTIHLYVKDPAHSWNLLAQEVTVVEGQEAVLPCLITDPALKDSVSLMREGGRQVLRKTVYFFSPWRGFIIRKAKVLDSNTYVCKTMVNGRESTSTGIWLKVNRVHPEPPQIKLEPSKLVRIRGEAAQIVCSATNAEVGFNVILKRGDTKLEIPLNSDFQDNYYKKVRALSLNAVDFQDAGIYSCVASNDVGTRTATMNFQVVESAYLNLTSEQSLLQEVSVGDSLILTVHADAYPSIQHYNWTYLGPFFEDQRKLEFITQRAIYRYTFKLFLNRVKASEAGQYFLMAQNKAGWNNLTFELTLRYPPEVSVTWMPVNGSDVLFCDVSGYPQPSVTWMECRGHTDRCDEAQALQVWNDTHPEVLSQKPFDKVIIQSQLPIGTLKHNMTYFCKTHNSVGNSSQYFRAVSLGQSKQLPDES
Method: as §1

T1 sequence (P09581 other isoform, or with tags, fused parts or gaps mutant): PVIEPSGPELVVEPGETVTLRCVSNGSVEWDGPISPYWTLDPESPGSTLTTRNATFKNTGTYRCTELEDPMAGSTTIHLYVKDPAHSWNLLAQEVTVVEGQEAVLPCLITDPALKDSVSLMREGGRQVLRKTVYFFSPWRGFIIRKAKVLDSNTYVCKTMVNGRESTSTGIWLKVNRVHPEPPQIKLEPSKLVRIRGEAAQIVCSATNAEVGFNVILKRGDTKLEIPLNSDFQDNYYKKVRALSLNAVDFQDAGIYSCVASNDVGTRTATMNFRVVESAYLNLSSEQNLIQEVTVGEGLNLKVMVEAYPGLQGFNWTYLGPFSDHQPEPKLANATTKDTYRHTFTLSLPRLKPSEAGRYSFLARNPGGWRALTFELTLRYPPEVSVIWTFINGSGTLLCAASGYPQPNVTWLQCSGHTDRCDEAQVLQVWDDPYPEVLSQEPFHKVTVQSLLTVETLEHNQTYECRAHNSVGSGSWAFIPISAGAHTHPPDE

binding result (chimera 3 (m,m,m)): no binding (tested: 100 nM)
binding result (mouse CSF-1R): no binding (tested: 100 nM)
B1: Antibody 1 (antibody, human IgG1, kappa, V domains shown)
VH: QDQLVESGGGVVQPGRSLRLSCAASGFTFSSYGMHWVRQAPGEGLEWVAVIWYDGSNKYYADSVKGRFTISRDNSKNTLYLQMNSLRAEDTAVYYCARGDYEVDYGMDVWGQGTTVTVAS
VL: AIQLTQSPSSLSASVGDRVTITCRASQGISNALAWYQQKPGKAPKLLIYDASSLESGVPSRFSGSGSGTDFTLTISSLQPEDFATYYCQQFNSYPWTFGQGTKVEIKR
notes: also called anti-CSF-1R Antibody 1
